This note sets out measurements from patent publication US20200283478A1 (Genentech, published 2020).

Bridge positions count the residues as written; N and C are the ends. Square brackets hold non-standard residues; d marks the D form. Ends that are not written are not given here. * marks the point of attachment. 5FAM = O=C1OC2(c3ccc(O)cc3Oc3cc(O)ccc32)c2ccc(C(=O)*)cc21; Ach = 2-aminocyclohexane-1-carboxylic acid; hArg = N=C(N)NCCCC[C@H](N)C(=O)O; Dap = NC[C@H](N)C(=O)O; Pentanoyl = CCCCC(=O)*

As a reminder, the IC50 is the concentration needed to halve the response being measured. The low end stands for greater potency in that assay, the high end for weaker potency in that assay. By Kd is commonly meant the free concentration of one partner at which half of the binding sites on the other are occupied at equilibrium, for simple one-to-one binding. Read a low Kd as higher affinity.

Test [1] addresses T1, PCSK9 (proprotein convertase subtilisin/kexin type 9), His-tagged, full-length (human, UniProt Q8NBP7 31-692).
T1 construct: Captured by the His tag (SPR Methods 1 and 2), amine-coupled (Method 3), or His-tagged in TR-FRET; also called His-PCSK9
Briefly: TR-FRET competition; competitor EGF(A)-Fc binding to His-PCSK9.

Test [2] has as its target T2, PCSK9Δhelix (human, UniProt Q8NBP7 31-152; Q8NBP7 168-692).
T2 construct: Made by TEV cleavage of human PCSK9 M1-Q692 with an engineered TEV site; The new N-terminus of the catalytic domain is S-A168; also called His-PCSK9Δhelix; PCSK9 lacking the P' helix
Put plainly: TR-FRET competition; competitor Ab20 binding to His-PCSK9Δhelix.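 Note: readout is anti-His-APC on PCSK9 with anti-Fc-europium on the Fc-tagged ligand, compound incubated 30 min, normalized signal ratio fitted by four-parameter logistic regression.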

In test [3] the target is T3, proprotein convertase subtilisin/kexin type 9 (PCSK9) (human, UniProt Q8NBP7 31-692).
T3 construct: His-tagged full-length PCSK9 in TR-FRET and SPR, biotinylated in phage ELISA; secreted protein is autoprocessed (prodomain plus catalytic/CRD chain starting at S153); also called rec.PCSK9; His-PCSK9
Briefly: phage spot ELISA.

The target in test [4] is T1, PCSK9 (proprotein convertase …). Put plainly: SPR, Method 3 (SensiQ Pioneer FE, target amine-coupled, gradient injection).
For test [5], the target named is T2, PCSK9Δhelix. The test is described as above.
Test [6] has as its target T4, PCSK9Δhelix (human, Chemically biotinylated in the phage ELISAs; the site is not given.).
T4 construct: construct M1-Q692 with engineered TEV site, cleaved by TEV; also called His-PCSK9Δhelix; open groove PCSK9Δhelix
Put plainly: phage spot ELISA.

T2 sequence (Q8NBP7 31-152, stated change not applied, chain 1 of 2): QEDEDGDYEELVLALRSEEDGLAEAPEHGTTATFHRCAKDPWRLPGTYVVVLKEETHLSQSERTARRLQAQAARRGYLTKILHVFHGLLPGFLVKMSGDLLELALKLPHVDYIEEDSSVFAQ
T2 sequence (Q8NBP7 other isoform, or with tags, fused parts or gaps mutant, chain 2 of 2): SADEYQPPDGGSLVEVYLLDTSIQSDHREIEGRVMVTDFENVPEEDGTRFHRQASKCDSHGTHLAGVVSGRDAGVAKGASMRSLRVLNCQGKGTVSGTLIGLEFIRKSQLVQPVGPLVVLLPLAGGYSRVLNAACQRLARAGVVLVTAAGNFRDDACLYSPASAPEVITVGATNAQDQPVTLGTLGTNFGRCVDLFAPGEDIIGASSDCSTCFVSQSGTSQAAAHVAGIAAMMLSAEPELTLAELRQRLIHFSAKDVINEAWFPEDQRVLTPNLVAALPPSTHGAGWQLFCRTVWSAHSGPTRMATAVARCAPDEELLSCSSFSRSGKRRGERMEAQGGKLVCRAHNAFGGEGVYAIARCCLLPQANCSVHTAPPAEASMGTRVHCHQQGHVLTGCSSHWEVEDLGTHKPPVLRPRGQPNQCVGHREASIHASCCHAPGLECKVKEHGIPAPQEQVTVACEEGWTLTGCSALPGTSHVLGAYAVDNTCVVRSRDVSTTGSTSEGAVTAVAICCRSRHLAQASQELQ
T4 sequence (prodomain, as listed by the source mutant limits assumed, chain 1 of 2): as the sequence (Q8NBP7 31-152, stated change not applied, chain 1 of 2) above
T4 sequence (chain, as listed by the source mutant limits assumed, chain 2 of 2): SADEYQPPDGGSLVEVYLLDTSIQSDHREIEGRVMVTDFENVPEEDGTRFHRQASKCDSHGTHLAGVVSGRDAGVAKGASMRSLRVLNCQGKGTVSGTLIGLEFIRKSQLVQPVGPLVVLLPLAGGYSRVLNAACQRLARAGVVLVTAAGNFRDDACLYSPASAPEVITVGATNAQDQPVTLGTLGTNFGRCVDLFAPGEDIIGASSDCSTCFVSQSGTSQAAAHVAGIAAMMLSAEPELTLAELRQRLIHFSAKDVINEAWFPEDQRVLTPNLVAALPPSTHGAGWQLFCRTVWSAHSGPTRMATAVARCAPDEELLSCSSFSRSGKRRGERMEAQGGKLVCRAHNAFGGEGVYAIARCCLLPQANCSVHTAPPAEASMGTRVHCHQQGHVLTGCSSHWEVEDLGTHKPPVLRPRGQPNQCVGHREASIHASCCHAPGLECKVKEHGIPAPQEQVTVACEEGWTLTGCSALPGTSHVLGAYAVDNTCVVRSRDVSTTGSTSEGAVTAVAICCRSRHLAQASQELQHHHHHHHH
T3 sequence (Q8NBP7 other isoform, or with tags, fused parts or gaps limits assumed): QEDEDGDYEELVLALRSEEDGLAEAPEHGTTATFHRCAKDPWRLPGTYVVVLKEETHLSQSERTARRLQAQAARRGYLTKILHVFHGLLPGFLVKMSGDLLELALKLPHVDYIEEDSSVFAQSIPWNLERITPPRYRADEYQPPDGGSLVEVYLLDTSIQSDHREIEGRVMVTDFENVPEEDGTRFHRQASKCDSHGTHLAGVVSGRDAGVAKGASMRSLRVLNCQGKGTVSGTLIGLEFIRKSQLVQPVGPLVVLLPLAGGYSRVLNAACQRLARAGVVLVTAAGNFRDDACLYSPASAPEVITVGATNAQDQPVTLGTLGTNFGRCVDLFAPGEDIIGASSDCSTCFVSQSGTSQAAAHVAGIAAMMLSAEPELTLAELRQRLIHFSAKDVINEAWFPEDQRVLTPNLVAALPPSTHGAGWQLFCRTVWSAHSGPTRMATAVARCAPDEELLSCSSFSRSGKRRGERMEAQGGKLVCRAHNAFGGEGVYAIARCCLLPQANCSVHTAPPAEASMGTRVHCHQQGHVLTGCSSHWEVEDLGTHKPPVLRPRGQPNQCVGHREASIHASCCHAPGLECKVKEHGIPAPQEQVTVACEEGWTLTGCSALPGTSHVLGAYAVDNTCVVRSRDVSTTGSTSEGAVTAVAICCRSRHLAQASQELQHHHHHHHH
T1 sequence (Q8NBP7 31-692 limits assumed): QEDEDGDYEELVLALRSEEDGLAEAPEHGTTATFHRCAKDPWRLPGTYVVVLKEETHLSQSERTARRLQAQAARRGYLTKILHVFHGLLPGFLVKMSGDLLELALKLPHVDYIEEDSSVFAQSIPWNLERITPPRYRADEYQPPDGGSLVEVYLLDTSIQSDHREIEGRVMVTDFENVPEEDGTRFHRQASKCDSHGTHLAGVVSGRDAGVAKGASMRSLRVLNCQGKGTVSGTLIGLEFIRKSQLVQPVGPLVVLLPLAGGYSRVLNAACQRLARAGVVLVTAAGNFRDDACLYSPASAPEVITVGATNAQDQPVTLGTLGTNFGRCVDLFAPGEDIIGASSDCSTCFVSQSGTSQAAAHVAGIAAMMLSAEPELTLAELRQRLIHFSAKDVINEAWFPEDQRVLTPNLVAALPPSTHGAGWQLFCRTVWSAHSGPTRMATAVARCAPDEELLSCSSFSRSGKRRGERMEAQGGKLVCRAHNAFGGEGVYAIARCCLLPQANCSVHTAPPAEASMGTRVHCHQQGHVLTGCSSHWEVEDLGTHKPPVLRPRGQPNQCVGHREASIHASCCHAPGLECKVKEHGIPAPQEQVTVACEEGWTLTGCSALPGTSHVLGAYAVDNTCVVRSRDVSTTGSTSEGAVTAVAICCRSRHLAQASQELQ

As for Ac-DLMPWNLVRIGL-NH2 [Compound 47], the IC50 in test [1] was greater than 50 µM; in test [2], 12.6 µM.

Take SGDFIPWNLVRIGLLR [SEQ ID NO 385]: in test [3], the ELISA worked out at 0.472 and the s/n ratio was determined as 3.42.

B1: Compound 97 (peptide)
peptide: Ac-GSGCWNL[Dap]RIGSQGC-NH2
modifications: disulfide 4-15
SMILES: CC[C@H](C)[C@@H]1NC(=O)[C@H](CCCNC(=N)N)NC(=O)[C@H](CN)NC(=O)[C@H](CC(C)C)NC(=O)[C@H](CC(N)=O)NC(=O)[C@H](Cc2c[nH]c3ccccc23)NC(=O)[C@@H](NC(=O)CNC(=O)[C@H](CO)NC(=O)CNC(C)=O)CSSC[C@@H](C(N)=O)NC(=O)CNC(=O)[C@H](CCC(N)=O)NC(=O)[C@H](CO)NC(=O)CNC1=O
notes: Two Cys, disulfide-cyclized; also called Ac-GSG-CWNL(Dpr)RIGSQGC-NH2
Consider B1, for which the equilibrium dissociation constant (Kd) in test [4] was 522 µM; in test [5], 89.2 µM.

In the case of Ac-ALMPWNLVRIGLLR-NH2 [Compound 45], the half-inhibitory concentration (IC50) in test [1] was greater than 50 µM; in test [2], 2.02 µM. Moreover, the values for the Kd in test [4] and in test [5] were 117 µM and 8.2 µM, respectively.

Take Ac-DLMPWALVRIGLLR-NH2 [Compound 62]: the IC50 is greater than 50 µM in test [1] and 49.5 µM in test [2].

As to Ac-DLMPWNLARIGLLR-NH2 [Compound 60], the results for the concentration for half-maximal inhibition (IC50) in test [1] and in test [2] were greater than 50 µM and 19.2 µM, respectively.

With Ac-DLMPWNLVRIGLAR-NH2 [Compound 55], the half-maximal inhibitory concentration (IC50) in test [1] was greater than 50 µM; in test [2], 9.7 µM. Besides, the Kd in test [4] was found to be 96.5 µM; in test [5] it was 2.8 µM.

Ac-DLMPWNLVRAGLLR-NH2 [Compound 58]: the IC50 in test [1] is greater than 50 µM; in test [2], 49.5 µM.

Ac-DLMPWNLVRIALLR-NH2 [Compound 57]: the results for the IC50 in test [1] and in test [2] were greater than 50 µM and greater than 49.5 µM, respectively.

In the case of Ac-DLMPWNLVAIGLLR-NH2 [Compound 59], the 50% inhibitory concentration (IC50) in test [1] was greater than 50 µM; in test [2], 49.5 µM.

For the molecule Ac-DLMPWNAVRIGLLR-NH2 [Compound 61], the values for the IC50 in test [1] and in test [2] were greater than 50 µM and 49.5 µM, respectively.

As to Ac-DLMPWNLVRIGLL-NH2 [Compound 46], the IC50 in test [1] is greater than 50 µM; in test [2], 14 µM.

Turning to SGCFIPWNLQRIGLLC (not fully specified (C-terminus, bridges); cysteine pairing not given here) [SEQ ID NO 383], in test [3], the ELISA came out at 3 and the s/n ratio stood at 8.11. For the same molecule, in test [6], the ELISA was determined as 3.07 and the s/n ratio stood at 8.48.

B2: Compound 111 (peptide)
peptide: Pentanoyl-WNLVRIGLLR-NH2
SMILES: CCCCC(=O)N[C@@H](Cc1c[nH]c2ccccc12)C(=O)N[C@@H](CC(N)=O)C(=O)N[C@@H](CC(C)C)C(=O)N[C@H](C(=O)N[C@@H](CCCNC(=N)N)C(=O)N[C@H](C(=O)NCC(=O)N[C@@H](CC(C)C)C(=O)N[C@@H](CC(C)C)C(=O)N[C@@H](CCCNC(=N)N)C(N)=O)[C@@H](C)CC)C(C)C
For the molecule B2, the IC50 in test [1] was greater than 50 µM; in test [2] it was 4.9 µM.

On to SGDLMPWNLVRIGLLR [SEQ ID NO 389], for which the ELISA in test [3] amounted to 3.16; in test [6] it was 3.23. In addition, the s/n ratio was 16.5 in test [3] and 14.7 in test [6].

As for SGRCLNHLISGNMNSC [SEQ ID NO 387], the ELISA in test [3] is 2.62; in test [6], 2.88. Moreover, the s/n ratio in test [3] came out at 17.5; in test [6] it was 20.7.

SGCSDLWNLARIYPMC [SEQ ID NO 391]: in test [3], the ELISA stood at 0.514 and the s/n ratio stood at 3.59. In test [6], the ELISA amounted to 2.21 and the s/n ratio stood at 15.1.

B3: Compound 118 (peptide)
peptide: Pentanoyl-WNLV[hArg]IGLTR-NH2
SMILES: CCCCC(=O)N[C@@H](Cc1c[nH]c2ccccc12)C(=O)N[C@@H](CC(N)=O)C(=O)N[C@@H](CC(C)C)C(=O)N[C@H](C(=O)N[C@@H](CCCCNC(=N)N)C(=O)N[C@H](C(=O)NCC(=O)N[C@@H](CC(C)C)C(=O)N[C@H](C(=O)N[C@@H](CCCNC(=N)N)C(N)=O)[C@@H](C)O)[C@@H](C)CC)C(C)C
notes: also called n-BuC(O)-WNLV(homoR)IGLTR-NH2
For the molecule B3, the half-inhibitory concentration (IC50) is greater than 50 µM in test [1] and 1.4 µM in test [2].

Consider Ac-DLMPWNLVRIG-NH2 [Compound 48], for which the IC50 in test [1] is greater than 50 µM; in test [2] it was 49.5 µM.

In the case of SGACVKPCIAGNIIR [SEQ ID NO 388], the ELISA stood at 1.25 in test [3] and 2.09 in test [6]. For the same molecule, the figures for the s/n ratio in test [3] and in test [6] were 9.44 and 18.2, respectively.

In the case of Ac-DLMPWNLVRI-NH2 [Compound 49], the IC50 was greater than 50 µM in test [1] and 49.5 µM in test [2].

For Ac-WNLVRIGL-NH2 [Compound 120], the IC50 in test [1] is greater than 50 µM; in test [2], 49.5 µM.

Turning to Ac-CFIPWNLQRIGLLC-NH2 (disulfide 1-14 (inferred), Two Cys, disulfide-cyclized) [Compound 31], the Kd in test [4] turned out to be 5.83 µM; in test [5], 3.01 µM.

As for Ac-CRLPWNLQRIGLPC-NH2 (disulfide 1-14 (inferred), Two Cys, disulfide-cyclized) [Compound 32], the Kd amounted to 1.3 µM in test [4] and 0.21 µM in test [5].

Turning to Ac-CRLPWNLARIGLPC-NH2 (disulfide 1-14 (inferred), Two Cys, disulfide-cyclized) [Compound 73], the values for the Kd in test [4] and in test [5] were 11 µM and 0.167 µM, respectively.

In the case of Ac-FCLWNLKRIGAQCWF-NH2 (disulfide 2-13 (inferred), Two Cys, disulfide-cyclized) [Compound 96], the dissociation constant Kd in test [4] was 46.4 µM; in test [5] it was 2.5 µM.

B4: Compound 112 (peptide)
peptide: Pentanoyl-WNLVRIGLTR-NH2
SMILES: CCCCC(=O)N[C@@H](Cc1c[nH]c2ccccc12)C(=O)N[C@@H](CC(N)=O)C(=O)N[C@@H](CC(C)C)C(=O)N[C@H](C(=O)N[C@@H](CCCNC(=N)N)C(=O)N[C@H](C(=O)NCC(=O)N[C@@H](CC(C)C)C(=O)N[C@H](C(=O)N[C@@H](CCCNC(=N)N)C(N)=O)[C@@H](C)O)[C@@H](C)CC)C(C)C
Consider B4, for which the IC50 in test [1] was greater than 50 µM; in test [2] it was 7.5 µM.

Regarding Ac-CRL[Ach]WNLQRIGLPC-NH2 (disulfide 1-14 (inferred), Two Cys, disulfide-cyclized) [Compound 82], the equilibrium dissociation constant (Kd) amounted to 118 µM in test [4] and 6.4 µM in test [5].

Take 5FAM-SGSGCFIPWNLQRIGLLC-NH2 (disulfide 5-18 (inferred), Two Cys, disulfide-cyclized) [Compound 33]: the figures for the Kd in test [4] and in test [5] were 6.01 µM and 10 µM, respectively.

For SGGSMPWNLERIFALH [SEQ ID NO 390], the ELISA in test [3] was found to be 2.74; in test [6] it was 3.19. Besides, the figures for the s/n ratio in test [3] and in test [6] were 15.8 and 21.3, respectively.

As to Ac-PWNLVRIGL-NH2 [Compound 119], the IC50 in test [1] is greater than 50 µM; in test [2] it was 49.5 µM.

With SGGACPWNLERIGLSC [SEQ ID NO 384], in test [3], the ELISA was found to be 1.42 and the s/n ratio turned out to be 9.77. Further, in test [6], the ELISA is 1.94 and the s/n ratio worked out at 12.3.

As for 5FAM-SGSGCRLPWNLQRIGLPC-NH2 (disulfide 5-18 (inferred), Two Cys, disulfide-cyclized) [Compound 34], the values for the dissociation constant Kd in test [4] and in test [5] were 4.47 µM and 5.28 µM, respectively.
